Measurements reported in PMC3847620, “A valid strategy for precise identifications of transcription factor binding sites in combinatorial regulation using bioinformatic and experimental approaches”.

T1: MBP-IpMYB1 (Ipomoea purpurea, UniProt Q1JV13 1-272)
T1 sequence: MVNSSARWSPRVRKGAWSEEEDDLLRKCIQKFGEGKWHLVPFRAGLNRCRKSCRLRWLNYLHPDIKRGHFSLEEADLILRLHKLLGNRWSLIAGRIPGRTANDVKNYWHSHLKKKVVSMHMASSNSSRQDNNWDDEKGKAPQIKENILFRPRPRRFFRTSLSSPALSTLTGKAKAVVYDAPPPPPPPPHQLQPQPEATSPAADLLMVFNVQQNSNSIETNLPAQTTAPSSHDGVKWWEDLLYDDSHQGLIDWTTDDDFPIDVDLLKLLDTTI


Legend:
MBP-IpMYB1 [1] = target: T1, MBP-IpMYB1; test: EMSA; favored over probe 1; EMSA: 1x = 10 mM Tris-HCl pH 7.5, 50 mM NaCl, 8 mM MgCl2, 1 mM EDTA, 1 mM DTT, 5% glycerol; 20 pmol probe, 2 ug MBP-protein in 10 ul, 25 C, 10 min; 12% native PAGE, 0.25x TBE; conditions: protein: recombinant; tags: MBP (pMAL-c2G)
MBP-IpMYB1 [2] = target: T1, MBP-IpMYB1; test: EMSA; EMSA: 1x = 10 mM Tris-HCl pH 7.5, 50 mM NaCl, 8 mM MgCl2, 1 mM EDTA, 1 mM DTT, 5% glycerol; 20 pmol probe, 2 ug MBP-protein in 10 ul, 25 C, 10 min; 12% native PAGE, 0.25x TBE; conditions: protein: recombinant; tags: MBP (pMAL-c2G)

Binder | binding result (MBP-IpMYB1 [1]) | binding result (MBP-IpMYB1 [2])
MYB1pro probe 3 (dsDNA) DNA 1: TCTAGCTAGCTAGCTACCAACTGCAC DNA 2: GTGCAGTTGGTAGCTAGCTAGCTAGA | binds | 
p1x3 (dsDNA) DNA 1: ATTCCTAGCTACCATACCTAGCTACCATACCTAGCTACCATATTA DNA 2: TAATATGGTAGCTAGGTATGGTAGCTAGGTATGGTAGCTAGGAAT |  | binds
